Patent US20200325187A1 (Genentech, published 2020)

T1: hVEGF-A (8-109) (human, UniProt P15692 214-315)
T1 sequence (looked up): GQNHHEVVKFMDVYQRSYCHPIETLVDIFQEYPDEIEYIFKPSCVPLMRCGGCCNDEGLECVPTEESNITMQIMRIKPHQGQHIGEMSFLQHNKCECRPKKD


target: T1, hVEGF-A (8-109); assay: spot phage ELISA

Row | Binder | binding result
1 | GCNIMLPFWGCGRDFECLAGCVCQYYQSCGGS (designed binder) [9.54.90-2x63] | binds
2 | GCNIMLPFWGCGRDFECLAGCVCQYYQSCGIA (designed binder) [9.54.90-2x2] | binds
3 | GCNIMLPFWGCGRDFECLAGCVCQYYQSCGFH (designed binder) [9.54.90-2x28] | binds
4 | GCNIMLPFWGCGRDFECLAGCVCQYYQSCGLS (designed binder) [9.54.90-2x42] | binds
5 | GCNIMLPFWGCGRDFECLAGCVCQYYQSCGVH (designed binder) [9.54.90-2x90] | binds
6 | GCNIMLPFWGCGRDFECLAGCVCQYYQSCGTR (designed binder) [9.54.90-2x36] | binds
7 | GCDVMQPYWGCEMDFDCLAGCVCHWYNSCGSL (designed binder) [9.63-36] | binds
8 | GCDVMQPYWGCEMDFDCLAGCVCHWYNSCGNN (designed binder) [9.63-65] | binds
9 | GCDVMQPYWGCEIDFDCLAGCVCHWYNSCGQV (designed binder) [9.63.44-55] | binds
10 | GCDVMQPYWGCEMDFDCLAGCVCHWYNSCGST (designed binder) [9.63.44-41] | binds
11 | GCDVMQPYWGCEMDFDCLAGCVCHWYNSCGND (designed binder) [9.63-77] | binds
12 | GCDVMQPYWGCKQDFDCLAGCICHWYNSCGYL (designed binder) [9.63-10] | binds
13 | GCDVMQPYWGCEMDFDCLAGCVCHWYNSCGNS (designed binder) [9.63.44-80] | binds
14 | GCDVMQPYWGCKQDSDCLAGCVCHWYNSCGEN (designed binder) [9.63-62] | binds
15 | GCDVMQPYWGCKQDSDCLAGCICHWYNSCGTD (designed binder) [9.63-19] | binds
16 | GCDVMQPYWGCEMDFDCLAGCICHWYNSCGAS (designed binder) [9.63-23] | binds
17 | GCDVMQPYWGCEMDFDCLAGCICHWYNSCGDE (designed binder) [9.63-93] | binds
18 | GCDVMQPYWGCEMDFDCLAGCICHWYNSCGTR (designed binder) [9.63-61] | binds
19 | GCDVMQPYWGCEMDFDCLAGCICHWYNSCGPT (designed binder) [9.63-30] | binds
20 | GCDVMQPYWGCEMDFDCLAGCICHWYNSCGRP (designed binder) [9.63-74] | binds

Row | Binder | binding result
21 | GCDVMQPYWGCEMDFDCLAGCVCHWYNSCGFN (designed binder) [9.63.44-73] | binds
22 | GCDVMQPYWGCKQDFDCLAGCVCHWYNSCGPS (designed binder) [9.63-1] | binds
23 | GCDVMQPYWGCEMDFDCLAGCVCHWYNSCGYM (designed binder) [9.63.44-54] | binds
24 | GCDVMQPYWGCEMDFDCLAGCVCHWYNSCGRL (designed binder) [9.63-21] | binds
25 | GCDVMQPYWGCEMDFDCLAGCVCHWYNSCGRY (designed binder) [9.63.44-82] | binds
26 | GCDVMQPYWGCEMDFDCLAGCVCHWYNSCGEP (designed binder) [9.63.44-16] | binds
27 | GCDVMQPYWGCEMDFDCLAGCVCHWYNSCGGK (designed binder) [9.63-7] | binds
28 | GCDVMQPYWGCEMDFDCLAGCVCHWYNSCGEK (designed binder) [9.63-17] | binds
29 | GCDVMQPYWGCEMDFDCLAGCICHWYNSCGPE (designed binder) [9.63-66] | binds
30 | GCDVMQPYWGCEMDFDCLAGCVCHWYNSCGDL (designed binder) [9.63-16] | binds
31 | GCDVMQPYWGCEMDFDCLAGCVCHWYNSCGVN (designed binder) [9.63.44-14 (SEQ ID NO: 514)] | binds
32 | GCDVMQPYWGCEMDFDCLAGCVCHWYNSCGSM (designed binder) [9.63-45] | binds
33 | GCDVMQPYWGCEMDFDCLAGCICHWYNSCGRT (designed binder) [9.63.44-2-A] | binds
34 | GCDVMQPYWGCEMDFDCLAGCVCHWYNSCGTP (designed binder) [9.63.44-44] | binds
35 | GCDVMQPYWGCEMDFDCLAGCVCHWYNSCGVE (designed binder) [9.63-68] | binds
36 | GCDVMQPYWGCEMDFDCLAGCVCHWYNSCGWD (designed binder) [9.63-40] | binds
37 | GCDVMQPYWGCEMDFDCLAGCVCHWYNSCGGQ (designed binder) [9.63.44-19] | binds
38 | GCNIMLPFWGCKQDSDCLAGCVCQYYQSCGSE (designed binder) [9.54-4] | binds
39 | GCNIMLPFWGCKQDSDCLAGCVCQYYQSCGEE (designed binder) [9.54-17] | binds
40 | GCNIMLPFWGCKQDFDCLAGCICQYYQSCGGE (designed binder) [9.54-39] | binds

Row | Binder | binding result
41 | GCNIMLPFWGCKQDSDCLAGCVCQYYQSCGDD (designed binder) [9.54-19] | binds
42 | GCNIMLPFWGCKQDSDCLAGCVCQYYQSCGTD (designed binder) [9.54-1] | binds
43 | GCNIMLPFWGCKQDFDCLAGCVCQYYQSCGRP (designed binder) [9.54-13] | binds
44 | GCNIMLPFWGCKQDSDCLVGCICQYYQSCGSI (designed binder) [9.54-10] | binds
45 | GCNIMLPFWGCKQDSDCLAGCVCQYYQSCGPH (designed binder) [9.54-27] | binds
46 | GCNIMLPFWGCKQDSDCLAGCVCQYYQSCGTN (designed binder) [9.54-42] | binds
47 | GCNIMLPFWGCKQDSDCLAGCVCQYYQSCGEN (designed binder) [9.54-24] | binds
48 | GCNIMLPFWGCKQDFDCLAGCVCQYYQSCGDT (designed binder) [9.54-34] | binds
49 | GCNIMLPFWGCKQDFDCLAGCVCQYYQSCGGR (designed binder) [9.54-32] | binds
50 | GCNIMLPFWGCKQDSDCLAGCVCQYYQSCGMD (designed binder) [9.54-2] | binds
51 | GCNIMLPFWGCKQDFDCLAGCVCQYYQSCGQH (designed binder) [9.54-9] | binds
52 | GCNIMLPFWGCKQDSDCLAGCVCQYYQSCGDG (designed binder) [9.54-43] | binds
53 | GCNIMLPFWGCKQDSDCLAGCVCQYYQSCGSD (designed binder) [9.54-21] | binds
54 | GCNIMLPFWGCKQDFDCLAGCVCQYYQSCGLE (designed binder) [9.54-5] | binds
55 | GCNIMLPFWGCKQDSDCLAGCVCQYYQSCGPE (designed binder) [9.54-15] | binds
56 | GCNIMLPFWGCKQDSDCLAGCICQYYQSCGQN (designed binder) [9.54-12] | binds
57 | GCNIMLPFWGCKQDFDCLAGCVCQYYQSCGQY (designed binder) [9.54-6] | binds
58 | GCNIMLPFWGCGRDFECLAGCVCQYYQSCGPLQ (designed binder) [9.54.90-3x49] | binds
59 | GCNIMLPFWGCGRDFECLAGCVCQYYQSCGNYQ (designed binder) [9.54.90-3X50] | binds
